Source: publication PMC8061694, “Ectopic positioning of the cell division plane is associated with single amino acid substitutions in the FtsZ-recruiting SsgB in Streptomyces” (Open Biology, 2021)

B1: Streptomyces coelicolor FtsZ, C-terminal His-tag fusion (natural protein, UniProt P45500 1-399, looked up)
chain: MAAPQNYLAVIKVIGVGGGGVNAINRMIEVGLKGVEFIAINTDAQALLMSDADVKLDVGRELTRGLGAGANPAVGRKAAEDHREEIEEVLKGADMVFVTAGEGGGTGTGGAPVVANIARSLGALTIGVVTRPFTFEGRRRANQAEDGIAELREEVDTLIVIPNDRLLSISDRQVSVLDAFKSADQVLLSGVQGITDLITTPGLINLDFADVKSVMSEAGSALMGIGSARGDDRAVAAAEMAISSPLLEASIDGARGVLLSISGGSDLGLFEINEAAQLVSEAAHPEANIIFGAVIDDALGDEVRVTVIAAGFDGGQPPSKRDNVLGSSSAKREEPTPARPSESRPSFGSLGSVKPKEEPEPAPVPEPVADLPVSPPPVPPSRTYSDSAAEELDVPDFLK
notes: FtsZ of Streptomyces coelicolor, codon-optimised ftsZ cloned into pET28a; Forms polymers with GTP; source: E. coli Rosetta 2 (DE3) pLysS, purified

Columns and labels:
[1] = target: the molecule itself; assay: co-sedimentation; co-pelleting assay: purified FtsZ with or without equimolar SsgB or its mutants, 15 µM final; pre-spun 50 k r.p.m. 30 min; 2 mM MgCl2 and GTP added, 10 min at 30°C; centrifuged 65 k r.p.m. at 20°C for 30 min; supernatants and pellets on SDS-PAGE
[2] = target: B1; assay: as above; settings: both partners purified
[3] = target: Streptomyces coelicolor SsgB, wild type, His6-tagged (Streptomyces coelicolor) (UniProt Q9L268); assay: crystal structure; tetragonal crystals, sitting-drop vapour diffusion at 18°C; 0.2 M sodium chloride, 0.1 M sodium/potassium phosphate pH 6.2, 50% PEG200; 2.1 Å; eight molecules per asymmetric unit

Row | Binder | binding result [1] | binding result [2] | stoichiometry N [3]
1 | B1 | binds |  | 
2 | Streptomyces coelicolor SsgB, wild type, His6-tagged (natural protein, UniProt Q9L268 1-137, looked up, SsgB of Streptomyces coelicolor, entire coding region, 137 aa native polypeptide; expressed from pET28a as a 157 aa fusion protein; Trimer in the crystal, mainly monomer by SEC; The last 13 residues are not modelled in the structure; also called ScSsgB; wild-type SsgB; source: E. coli Rosetta 2 (DE3) pLysS, purified) MNTTVSCELHLRLVVSSESSLPVPAGLRYDTADPYAVHATFHTGAEETVEWVFARDLLAEGLHRPTGTGDVRVWPSRSHGQGVVCIALSSPEGEALLEAPARALESFLKRTDAAVPPGTEHRHFDLDQELSHILAES |  | binds | 3
3 | SsgB-E120G, His6-tagged (natural protein, Streptomyces coelicolor, UniProt Q9L268 1-137, looked up, SsgB of Streptomyces coelicolor, entire coding region (137 aa), point mutant E120G, expressed in the same way as wild type; also called SsgB variant E120G; source: E. coli Rosetta 2 (DE3) pLysS, purified) MNTTVSCELHLRLVVSSESSLPVPAGLRYDTADPYAVHATFHTGAEETVEWVFARDLLAEGLHRPTGTGDVRVWPSRSHGQGVVCIALSSPEGEALLEAPARALESFLKRTDAAVPPGTGHRHFDLDQELSHILAES |  | binds | 
4 | SsgB E120A, His6-tagged (natural protein, Streptomyces coelicolor, UniProt Q9L268 1-137, looked up, SsgB of Streptomyces coelicolor, entire coding region (137 aa), point mutant E120A, expressed in the same way as wild type; also called SsgB variant E120A; source: E. coli Rosetta 2 (DE3) pLysS, purified) MNTTVSCELHLRLVVSSESSLPVPAGLRYDTADPYAVHATFHTGAEETVEWVFARDLLAEGLHRPTGTGDVRVWPSRSHGQGVVCIALSSPEGEALLEAPARALESFLKRTDAAVPPGTAHRHFDLDQELSHILAES |  | binds | 
